Data reported in patent US20170342155A1 (Amgen, published 2017).

T1: murine CCR7 K201R/N202S/G204S/T207A/L208M construct 20110094673 (mouse, UniProt P47774 25-378)
T1 construct: Murine CCR7 with five human ECL2 residues; also called KNGTL; KNGTL construct
T1 chain: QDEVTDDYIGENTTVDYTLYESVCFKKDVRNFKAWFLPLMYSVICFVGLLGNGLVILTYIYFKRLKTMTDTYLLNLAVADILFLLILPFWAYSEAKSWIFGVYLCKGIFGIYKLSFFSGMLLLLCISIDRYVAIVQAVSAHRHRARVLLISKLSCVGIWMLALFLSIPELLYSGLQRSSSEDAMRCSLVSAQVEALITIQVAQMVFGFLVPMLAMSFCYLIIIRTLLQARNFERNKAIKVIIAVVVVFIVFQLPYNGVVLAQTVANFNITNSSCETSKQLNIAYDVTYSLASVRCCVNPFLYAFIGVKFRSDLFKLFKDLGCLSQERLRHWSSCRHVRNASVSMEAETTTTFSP

T2: human CCR7 variant M208L (20100171271) (human, UniProt P32248 25-378)
T2 sequence: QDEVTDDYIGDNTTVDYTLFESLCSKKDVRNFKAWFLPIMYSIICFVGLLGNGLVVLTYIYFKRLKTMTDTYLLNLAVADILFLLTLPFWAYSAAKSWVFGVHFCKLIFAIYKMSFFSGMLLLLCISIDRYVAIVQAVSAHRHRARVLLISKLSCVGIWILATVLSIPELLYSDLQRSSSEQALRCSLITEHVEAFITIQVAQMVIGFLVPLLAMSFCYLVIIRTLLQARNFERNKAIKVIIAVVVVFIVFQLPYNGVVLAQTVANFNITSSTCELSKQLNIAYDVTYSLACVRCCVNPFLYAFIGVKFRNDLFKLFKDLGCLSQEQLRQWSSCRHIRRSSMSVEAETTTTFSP

T3: human CCR7 variant R201K (20100171268) (human, UniProt P32248 25-378)
T3 sequence: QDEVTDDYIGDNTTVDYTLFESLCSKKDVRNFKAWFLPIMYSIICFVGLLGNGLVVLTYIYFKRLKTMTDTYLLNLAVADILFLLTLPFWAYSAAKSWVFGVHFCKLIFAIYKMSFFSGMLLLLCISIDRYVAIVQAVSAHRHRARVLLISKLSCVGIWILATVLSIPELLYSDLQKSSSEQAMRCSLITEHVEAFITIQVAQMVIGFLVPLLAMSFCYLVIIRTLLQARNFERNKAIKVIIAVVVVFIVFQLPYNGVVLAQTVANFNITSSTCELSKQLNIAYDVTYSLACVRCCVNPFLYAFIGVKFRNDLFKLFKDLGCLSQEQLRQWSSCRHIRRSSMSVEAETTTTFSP

T4: human CCR7 variant S49F (20100122627) (human, UniProt P32248 25-378)
T4 sequence: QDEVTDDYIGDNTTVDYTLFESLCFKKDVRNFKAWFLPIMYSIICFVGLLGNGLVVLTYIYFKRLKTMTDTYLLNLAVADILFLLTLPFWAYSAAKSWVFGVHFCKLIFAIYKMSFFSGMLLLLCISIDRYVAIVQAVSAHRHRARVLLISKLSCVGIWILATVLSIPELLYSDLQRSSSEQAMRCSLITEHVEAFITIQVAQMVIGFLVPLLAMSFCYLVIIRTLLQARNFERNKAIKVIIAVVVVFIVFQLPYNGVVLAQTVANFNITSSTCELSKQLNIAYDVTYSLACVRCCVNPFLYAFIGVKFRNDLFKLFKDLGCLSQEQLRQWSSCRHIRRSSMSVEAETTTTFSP

T5: human CCR7 variant F128L (20100126472) (human, UniProt P32248 25-378)
T5 sequence: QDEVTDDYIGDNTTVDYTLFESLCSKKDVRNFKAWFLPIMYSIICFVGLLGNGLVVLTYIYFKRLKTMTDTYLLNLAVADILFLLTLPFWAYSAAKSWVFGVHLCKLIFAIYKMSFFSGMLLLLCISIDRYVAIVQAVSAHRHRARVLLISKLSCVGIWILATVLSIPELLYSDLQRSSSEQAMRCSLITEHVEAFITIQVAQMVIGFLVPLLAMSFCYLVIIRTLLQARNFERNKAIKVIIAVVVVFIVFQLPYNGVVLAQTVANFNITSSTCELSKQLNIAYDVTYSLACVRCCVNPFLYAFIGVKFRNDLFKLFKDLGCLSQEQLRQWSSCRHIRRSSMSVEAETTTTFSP

T6: human CCR7 variant F44Y (20100128285) (human, UniProt P32248 25-378)
T6 sequence: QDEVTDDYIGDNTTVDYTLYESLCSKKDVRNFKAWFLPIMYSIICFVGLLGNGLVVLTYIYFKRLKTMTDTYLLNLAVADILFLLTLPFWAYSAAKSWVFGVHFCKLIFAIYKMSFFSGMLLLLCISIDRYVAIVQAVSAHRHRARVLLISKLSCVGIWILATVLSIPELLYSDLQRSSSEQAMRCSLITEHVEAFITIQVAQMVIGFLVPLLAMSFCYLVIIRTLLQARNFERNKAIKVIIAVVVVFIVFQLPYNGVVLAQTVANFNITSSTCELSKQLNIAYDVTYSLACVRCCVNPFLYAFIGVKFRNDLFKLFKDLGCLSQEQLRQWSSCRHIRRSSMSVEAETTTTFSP

T7: human CCR7 variant L47V (20100122626) (human, UniProt P32248 25-378)
T7 sequence: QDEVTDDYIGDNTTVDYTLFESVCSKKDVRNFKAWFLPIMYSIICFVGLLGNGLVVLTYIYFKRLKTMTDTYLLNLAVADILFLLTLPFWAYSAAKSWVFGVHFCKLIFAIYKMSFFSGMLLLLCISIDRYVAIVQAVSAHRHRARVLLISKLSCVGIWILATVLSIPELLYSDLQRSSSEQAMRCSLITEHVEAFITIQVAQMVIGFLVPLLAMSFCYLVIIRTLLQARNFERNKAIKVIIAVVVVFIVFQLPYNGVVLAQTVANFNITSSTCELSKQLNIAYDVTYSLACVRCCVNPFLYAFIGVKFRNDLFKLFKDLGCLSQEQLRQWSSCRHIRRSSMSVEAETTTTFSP


Legend:
Assay in all cases: flow cytometry on transfected 293T cells, PE secondary antibody, geo mean
[1] = biological target: T1, murine CCR7 …
[2] = biological target: T2, human CCR7 variant M208L (20100171271)
[3] = biological target: T3, human CCR7 variant R201K (20100171268)
[4] = biological target: T4, human CCR7 variant S49F (20100122627)
[5] = biological target: T5, human CCR7 variant F128L (20100126472)
[6] = biological target: T6, human CCR7 variant F44Y (20100128285)
[7] = biological target: T7, human CCR7 variant L47V (20100122626)

| binding result [1] | binding result [2] | binding result [3] | binding result [4] | binding result [5] | binding result [6] | binding result [7] | Binder |
| --- | --- | --- | --- | --- | --- | --- | --- |
| binds | binds | binds | binds | binds | binds | binds | antibody 6B4.1 (antibody, V domains shown, Human antibody from XenoMouse hybridoma; Light = 2 and heavy = 42 is inferred from the order of the listing (light chains first)) VH: QVQLVESGGGVVQPGRSLRLSCAASGFTFSSYGMHWVRQAPGKGLEWVAVIWYDGSKKYYADSVKGRFTISRDNSKNTLYLQMNRLRAEDTAVYYCARDGGIAVFLQDNWFDPWGQGTLVTVSS VL: SYELTQPPSVSVSPGQRARITCSGDKLGDKYASWYQQKPGQSPLLVIYQDSKRPSGIPERFSGSNSGNTATLTISGTQAMDEADYYCQAWGSSTVIFGGGTKLTVLG |
| binds | binds | binds | binds | binds | binds | binds | antibody 6B5.1 (antibody, human IgG2, lambda, V domains shown, Human antibody from XenoMouse hybridoma; Light = 18 and heavy = 50 is inferred from the order of the listing) VH: QVQLVESGGGVVQPGRSLRLSCAASGFTFRSYGMHWVRQAPGKGLEWVAVIWYDGSKKYYADSVKGRFTISRDNSKNTLYLQMNRLRAEDTAVYYCARDGGIAVFLEDNWFDPWGQGTLVTVSS VL: SYELTQPPSVSVSPGQRASITCSGDKLGDKYASWYQQKPGQSPLLVIYQDGKRPSGIPERFSGSNSGNTATLTISGTQAMDEADYYCQAWGSSTVIFGGGTKLTVLG |
